The text below walks through data of the DeepSol protein solubility set.

This data set in a line: soluble on expression in E. coli; label from the status in PepcDB or PDB records.
For “MGSDKIHHHHHHMLSKDPRLYAFRDDLADKRFETEITAQRFIQGEKKRVNTAVAGLFKENNKKSEKQTECLLGEELLIFEQGKTMSWGQSLKDGYVGYIDTTILCTSAIKQTHIVSVPRTFQYLQADLRGPMEYPLSMGSKVSVVDETEVRGTIYAILESGKAIITRHLSPIGRVYEDYVTVAETLIHTPYLWGGVSGFGIDCSGLVQLSMMMTGKMVLRDTDMQQKTIGRVLTDSDKLKRGDLVFWNGHVAIMIDHENIIHANGYSMDVMIEPLEEAVTRIAKKYQYPIEKRRPIQEM”, the “soluble on expression in E. coli” value is reported as “not soluble”.
Then “MPENVTVIGAGLAGSEATWQLAKRGIHVDLYEMRPKKETPAHETGEFAELVCTNSMRSNQLSNAVGLLKEEMRHLDSLIMKAADMTQVPAGGALAVDRDSFSKYVTDTLKGMDNVTVHEEEIVKIPEDGITIIATGPLTSDALAKQIQAFSGTDSLHFFDAAAPIIAADSIDMDIVYKKSRYDRGEAAYLNCPMSKEQYEKFANELIKAETAQLHGFENSDVFEGCMPIEVMAARGAKTMLFGPLKPVGLEDPHTGETPYAVVQLRQDNAAASMYNIVGFQTHLKFGEQKRVFSMIPGLENARFVRYGKMHRNTYMASPNVLTASYEAKNRPGLFFAGQMTGVEGYVESAGSGLVAGINAAREALGKETVAFPKNTALGSMANYVTTTSAKHFQPMNASFALLPALEGKKIRKKRERHEKISERGLASLDAFKTEVLDLEHHHHHH”, with “soluble”; and “SAESENVSNNISLYSEETVILDVKGKNKTDVIDEMIGILDKSGVLLDKKKFKEEILKREEISSTGFGMGIAIPHAKTDAVKVPRVAVGVSKEGFDFESEDGSLAHIIFMIAATDNGDNLHLKTLSQLSSKLMNEEFLNELLNSKTSREIVSKLNNEEIKSV”, with “not soluble”; and “MSLGGPNADAQRANQRNVKKPNTQTKIRLPESVRTKKPVDMDVAPVRQSSRDEIRYAANELDTFIERELLAEGIAAEELASDEVFLRRIYLDVAGRIPTLQEAEQFLSSKSSDRREELIDQLLSSPDYVSHTYNWWADTLRLVDRPQPNLVADPYNGYIKESIAENKPYDKWVYEMLTADGKVWDNPAVGFQLRDDGMPLPYIDNTVRVFLGTQIGCAQCHDHPFDEWSQYQFYQLAAFTAGTSTRMRKGDPGYEKTNPANDLINEGKKRYEKGRVPGEFQRIARANTYIVSERPRRLRLPHDYAYRDAKPKDFVEPKVLWGEIPSSAAKSTPREQFAAWVTSPENPRFSQTVVNRLWKRLMGVGFVDPVDDFRDENPCVNEAAMDYLCKELVRRGFDLKELTRIVLYSQTYQRKAVDYDITDGDLYYFPGPTVRRMTAEQVWDSILTLAVDNPWPFQRPTAKEMKPVMDLDFSKVDFEEVQRRSAKFKETYFASTYKRNLNQHAYQRNVLCRASELPAPLPADHFLRQFGQGDREVINGSQDEATVPQILAMFNGPITHVMLEPGSALVDNVLEVNNVKNRIDAIFLSVLTRKPSTEDRILASRELSSQNQTGVGYGNIIWALLNTREFLFVQEGHHHHHH”, with “not soluble”.
Then “GYIDTGLYQNKEDILNSPRRLGSTQTKLGDIGYTDVNGDGKIDGEDQVRIGKPTMPHFTYAFDFSLGYEGFTLSGLLYGTGERYMTFGNRYQSGEGKYLYYENQLNYWRPDNTGADFPRISISSGVNGNNNKAGSTFWMRNASYLRLKDLQLSYDFKYKYLKKCDWLQTCRVNLSGSNLFTISGVSKFFDPETSSTSGDGYPVQRVYSIGVTIGF”, with “not soluble”.
The result for “MGSDKIHHHHHHMNIIICDDRIDDRKNLSDLLSDYGEKKNYEFTITEYDSGEQLCEEQSALEACQLLFLDINMQGMDGLKTAMRIKEKYPKLPVVLVTAYMNYALDGYKVKASRFLLKDNLADTIEECMDDLIAEINKNRRILEFRFVEGTIKLYADDIIYIETELHKNVFYTEKGTFQIYKKLDELENEFKDMGFVRAHLSFLVNMRYITKISGYVMTLTTGKKIPVPKARYAQVKREYMLYKGEE” reads “not soluble”.
“MSLKTPAREIITDYAQAHFRYFRTADGTVYAQRNGHPVARPIRSQGTTGSHRQELMVGLFKDGIGVFNGTAMKEALDLIEALALTEDVQPVHIRVAPGFDGATWLDLGRDDGRSVRIHPTGWDIAIPDPREVCWRRTQLTGELPVPIKDTDGKGIDLLLRLCNFATAETECLAIAWLIGCLGPSVPVPAPFLTGPQGAGKSTGGRMLVRIIEGMTGDLRRAPKDEENLIAAVAAGWVTALDNLSHMTPDLSDAMCCIVTGAENVKRALFTDGDVFRARYRRPLLLTGIDVGVIRPDLAERLLPLRLERPKVRRTEAELWTEYAEVLPVVLGSLLDLAVKVRAVEVETPTDLRMADFAHLCAQLDAATGFGALAAYRAALDDLNDDVIEGDLLAQTVLRHAADLEPGTTQRMTSTEWLHCLSQLYTGEEFRPLPKGWPTTGKVLSDRLKRLQPTLAARGVLIDSGRTYEGRYLEMTRAPATEGHHHHHH”: the “soluble on expression in E. coli” value is “not soluble”.
Take “MHNVVFVLGPPGSGKGTICAKIQENLNYVHLSAGDLLRAERQREGSEFGALIESHIKNGSIVPVEITCSLLENAMKACGDAKGFLVDGFPRNEDNLQGWNKQMDGKALVQFVLFLSCPVSICIERCLNRGQGRTDDNEESLKKRVETYNQQTFPIIEHFEKSGLVREVKSERPVDVVYADVEKVFDAANKK”: the “soluble on expression in E. coli” value was “not soluble”.
Then “GMNNLYHLKVRCSSLHKIIGEPKSKADKEAGKLTDTAKSAVREMAKFDLFGYNAFEGNKYTQKGNELEEQAIKLSGVTRGLALKKNTERRENEFITGECDIYVPSRKLIIDTKCSWDIGSHPFFTDEAQEKAKKAGYDIQMQGYMWLWDCDQAQIDFVLFPTPLNLISAYDSDFKLIDLVEQIPQIRRITTVIIQRDNELIDKIKERVSAAQKYYDQLISEMS”, with “soluble”; and “MGSDKIHHHHHHMHRAGDSCTRDRRSRTAWRAALFQPVRRQRPVSEQCVRCCSSNEQWLDVCRYGSGAQGVGGVRHGNCLSPFTFISRLRRSGMTTDTFGGDLPASTLVPQPSFCVQTRVAHDADEQARNLHGWSQTYDQLTAGCFVGGLTELCLDHMQLFVETTSHTLRQTCEVQKDAYWFGIPACAAGSGRIDAQVIAGDALAFRPGGIEFELLTSAGYEIFGVVVKGEVLRRYAAQVERVGLADPVPNTQVVPIGMARKAQLCATLRQLLDDGAARGTPLSSVARNNLQAAVLASLFDVGALPASEPVAMPARPRRQSIVSEARDYVLLNRDRAVSVPELCEQLHVSRRTLQYCFQDVLGMAPATYLRAIRLNGARRDLSNASRESRSVQDVAAAWGFWHLSQFATDYRKLFGMRPSETLKAATGTRVERAGAFNAVALAHH”, with “not soluble”; and “MAVYLDFENHIKEIQNEIELALIRGDEDAKEILEKRLDKEVKSIYSNLTDFQKLQLARHPDRPYAMDYIDLILKDKYEVFGDRHYNDDKAIVCFVGKIDNVPVVVIGEEKGRGTKNKLLRNFGMPNPCGYRKALKMAKFAEKFNLPILMLVDTAGAYPGIGAEERGQSEAIAKNLQEFASLKVPTISVIIGEGGSGGALAIAVADKLAMMEYSIFSVISPEGCAAILWDDPSKTEVAIKAMKITPRDLKEAGLIDDIILEPSKGAHRDKFSAANTIKEYFLDALRTIQQDPHFLDNRYQKLMSLGSFVESMN”, with “soluble”.
For “MGGGKYETQMCVIIIEDIFGKIVAKVMETILKESCQLSTLFYKLKGQISNTLIRKSVSTLINFGFVTFHLDTNNRTTYVADSDQIQHVISSPRACLIAKTLYGPAAESICVELISQGRLTVSETIRRIQATDETAVFSDIKKSFEELAAAHFLIRVPSVESEIHGCPQFVTNFDPFAISTNIMEKKEGTSTSDSTSNNRKRKADSTPEDGDAGQYWRINWIRFNGYLRDELIIDYLIGGGSKGTMTNLNVKKEETIEDPQGDRTQYITQNVAHLMFKINETRAKPMSMESITASLTDLQRLVKENGLNLAKPDIELACQILVDESDGIIRKLGESNGGIFIVDIRRAIRQICRHHCESLIREQFEGRAIRVMRLLENRHYLDEEQVEKLSMMSGKEAREMLYALVEEGYVFNKPVGRSNDFQPARTFYLYYVDLPRTIRGLVEYTCKLVRNLIVRQRHERTENKSVLDKDANVQPIIENIRSSEQLDEASKLAQIAEVEEMYLPGPDRAQLNRFRKAQATLLAAQDQSIRVLLSFKLFLASGEN”, the “soluble on expression in E. coli” value was “not soluble”.
For the sequence “MEYFNVGKIVNTQGLQGEMRVLSVSDFAEERFKKGSQLALFDDKDRFVQEVTIVSHRKQKHFDIIKFKDMYHINAIEKYKGYTLKVSKDNQGDLQEGEFYYHQIIGMAVYEKDVLIGHVKEILQPGANDVWIVKRQGKRDLLLPYIPPVVLNVDVPNKRVDVELMEGLDDEDLEHHHHHH”, the “soluble on expression in E. coli” value is on record as “soluble”.
Then “MISVFHYHQPKIGNSESEYEDAFSYDVEKGLFAMADGSSESVFSNEWARSLVDTFVAGKYDMKIDDMVETAVGMWRSKLPWNNMKWFVKNKIARGSMATFLGLEVLDGSFRSVAVGDTCLFIITPEGMKSFPVKYPSEFGNTPKLIWTGNPLLRTRRSIKWANYMEGRISESDLLIMATDSLAHWMLSRAKQRPWQILIDHSENEGEFIGSLINSGEMKNDDVTFAIISLK”, with “not soluble”; and “MKSTMGIILTGGKNDRLKELAEMRSSTAVPIGGKYRVIDFVLSNMVNSGIKNIGVLTQYSFRSLMDHLGSGKEWDLDRRNEGLFIFPPYLAGEHSGWYQGSADAMYHNITFLKRSYEEYVLVAQGNCVYKMLFDDMLDYHIKKNADITIAYRDMSDFPREELSFMGVMTMDENRRVVDFKEKHKNPESTICSMGIYILKRELLIALLEECNSHGKYDFVKDVIINKLPTLNIYGYKFEGYWRNLNSINAYYRINMEMLNPEIRYQLFEQHGKVYTKVKDEPPAKYNEEAEVRNSIIADGCIIEGTVINSVLFRGVTIKRNAVVKDCIIMQDSVIEEDVDIESLIIDKNVYLSKGIRLKGMVNFPITIGKNAVI”, with “not soluble”.
Then “MSNIIVLSGSPRKGGNTDLLVDAFVKGAEKSNNVEVVSVAYYKVNPCIGCNSCFDRAGHECFQQDDMQIVYDKLKCADVIVVASPVYFYGVSAQLKAIIDRLHTPMRNDFKVKKLALILVGAAVLPELFDSIKIQYQLVLNFFKLEDAGMVLVRGAKDKGDVRNTDGLDEAYRLGLAME”, with “not soluble”.
The result for “MRIAIEKIIGLLKNQSSKESNVKIHRLAYITNSKFDGNNYIDRWCKIRNSHIGEYSYIGFGSDFNNVEVGRYCSISSDVKIGLGKHPTHFFSSSPIFYSNNNPFNIKQKFIDFNDQPSRTTIKNDVWIGANVIIMDGLTINTGAVIAAGSVVTKNVGAYEVVGGVPAKVIKKRFDNKTIEKLLESKWWEKTPDKLKGFSVEYLNKKDT” reads “not soluble”; that for “MDLFPVLKELAQKTPSKILLIVLDGVGGLPLEPGGPTELEAAKTPNLDRLAEESALGLLTPVYPGLAPGSGPGHLALFGYDPFRYVVGRGALSALGLGADFREGDVALRGNFATLDPEGKVVDRRAGRPPTEENQRVVAKLKEAIPRIEDVEVHFYTESEHRFLVVLRGEGLGDAVTDTDPQKTGLPPLKAKALDEASERTARLVNLLSERIREVLKDEPRMNGALFRGASKKPSFPRMQEVYKLTPAAIASYPMYKGLASLVGMEVLPVEGEGDALEGKLKALKENWGRYDFFYFHVKKTDAMGEDGNFHGKVEKVELFDALLPEILALGPDVLAITGDHSTPALLKAHSWHPVPLLLKAPYLRADEARRFTEREAQRGSLGHLRGMELMPLLLAHAGKLLKYGALEHHHHHH”, “not soluble”; that for “MANFQATIHSRPLSPEFMTQARRPASTIQAVLTNLREKISLQSILPGARLTEEELVDNYSIPRAMAREVLAVLEDRGIVRRIPNKGAVVAHVDMQWVYHYYDAREALDGMMVRLAARQTRPEDWADLVEQFGEPFQKALETGDVDRLISLIETFRNRLQTAANNPVLSDLAERIHERIRVVRQRVVLLPGRAETMVADYRAVLAALARSDAEEAEQLMGILNRNNRAAIQKYERYVV”, “not soluble”.
